What was measured:
[1] = system: T1, fluorogenic MMP peptide substrate [Dabcyl-Gaba-Pro-Gln-Gly-Leu-Glu(EDANS)-Ala-Lys-NH2]
T1 sequence: XXPQGLXAK

[2] = target: T2, Sortase A substrate Dnp-LPETG-(K-FITC)-NH2
T2 chain: LPETGK

[3] = target: T3, fluorogenic MMP peptide substrate [Dabcyl-Gaba-Pro-Gln-Gly-Leu-Glu(EDANS)-Ala-Lys-NH2] (not fully specified)
T3 chain: XXPQGLXAK

MMP-9
EDANS fluorescence intensity [1]: The fluorescence intensity of EDANS cleaved by MMP-9 bound with MNP-MMP9Ab

B1: Sortase A enzyme (protein)
chain: QAKPQIPKDKSKVAGYIEIPDADIKEPVYPGPATPEQLNRGVSFAEENESLDDQNISIAGHTFIDRPNYQFTNLKAAKKGSMVYFKVGNETRKYKMTSIRDVKPTDVGVLDEQKGKDKQLTLITCDDYNEKTGVWEKRKIFVATEVK
FITC fluorescence emission (1 µg/mL Sortase A, 30 min) [2]: the emission of FITC after the Sortase A substrate cleaved by Sortase A enzyme | FITC fluorescence emission at different contact times [2]: the longer the interaction between Sortase A enzyme and Sortase A substrate the higher emission of the FITC detected ... only until 30 min contact time | FITC fluorescence emission, S. aureus bacterial supernatant (1 h inoculation) [2]: about 47.26 a.u. | FITC fluorescence intensity, 1×10^-4 µg/mL Sortase A in buffer solution [2]: 100.2±22.7 a.u. | FITC fluorescence intensity, wound fluid spiked with 1×10^-4 µg/mL Sortase A, 30 min [2]: about 82.34 a.u. | FITC fluorescence signal at different Sortase A concentrations [2]: this sensing platform still had an obvious signal down to fg/mL of Sortase A concentration | increase of FITC fluorescence intensity on spiking the bacterial supernatant with Sortase A enzyme [2]: increased the fluorescence intensity about 112.19 a.u.

B2: Recombinant human MMP-1 (R&D Systems), activated with APMA (protein)
chain: FVLTEGNPRWEQTHLTYRIENYTPDLPRADVDHAIEKAFQLWSNVTPLTFTKVSEGQADIMISFVRGDHRDNSPFDGPGGNLAHAFQPGPGIGGDAHFDEDERWTNNFREYNLHRVAAHELGHSLGLSHSTDIGALMYPSYTFSGDVQLAQDDIDGIQAIYGRSQNPVQPIGPQTPKACDSKLTFDAITTIRGEVMFFKDRFYMRTNPFYPEVELNFISVFWPQLPNGLEAAYEFADRDEVRFFKGNKYWAVQGQNVLHGYPKDIYSSFGFPRTVKHIDAALSEENTGKTYFFVANKYWRYDEYKRSMDPGYPKMIAHDFPGIGHKVDAVFMKDGFFYFFHGTRQYKFDPKTKRILTLQKANSWFNCRKN
EDANS emission at 446.5 nm from peptide-functionalised pSiRM [3]: emission at 446.5 nm was observed | EDANS emission under confocal microscope (microcontact-printed peptide) [3]: The lighter colour (blue) is the colour of EDANS emission confirming the cleavage of the MMP substrate | EDANS fluorescence intensity at different incubation times (1.2×10^-7 M MMP-1) [3]: After 5 min of incubation, a significant fluorescence emission indicating the presence of MMP-1 was already detectable ... then plateaued at 15 min incubation time | limit of detection (EDANS fluorescence after 15 min incubation) [3]: the calculated LOD was 7.5×10^-19 M | shift of the resonance cavity dip (IRS) [3]: A small blue shift (Δλ=0.5 nm) observed by IRS after incubation with MMP-1

Reference: patent US10234390
